Laboratory results from patent publication US20190352420A1 (Boehringer Ingelheim, published 2019).
Read-outs that look alike come from different tables or passages of the source.

T1: cell-bound CD73 (human, UniProt P21589 27-549)
T1 sequence (looked up): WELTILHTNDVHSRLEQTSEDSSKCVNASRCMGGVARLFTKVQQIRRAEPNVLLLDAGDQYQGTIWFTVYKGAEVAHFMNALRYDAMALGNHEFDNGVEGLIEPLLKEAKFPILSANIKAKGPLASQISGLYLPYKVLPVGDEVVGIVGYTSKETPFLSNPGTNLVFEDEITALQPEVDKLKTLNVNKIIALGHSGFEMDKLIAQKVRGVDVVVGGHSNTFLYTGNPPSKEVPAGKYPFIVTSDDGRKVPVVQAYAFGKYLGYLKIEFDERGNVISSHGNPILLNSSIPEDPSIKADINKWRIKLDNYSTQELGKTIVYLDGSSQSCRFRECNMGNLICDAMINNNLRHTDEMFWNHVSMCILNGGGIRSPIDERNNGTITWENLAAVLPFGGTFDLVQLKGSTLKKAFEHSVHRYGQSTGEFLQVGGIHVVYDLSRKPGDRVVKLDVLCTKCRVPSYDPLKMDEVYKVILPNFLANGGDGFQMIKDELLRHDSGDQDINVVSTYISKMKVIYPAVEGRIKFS

T2: non-cell-bound CD73 (human, UniProt P21589 27-549, limits assumed)
T2 sequence (looked up): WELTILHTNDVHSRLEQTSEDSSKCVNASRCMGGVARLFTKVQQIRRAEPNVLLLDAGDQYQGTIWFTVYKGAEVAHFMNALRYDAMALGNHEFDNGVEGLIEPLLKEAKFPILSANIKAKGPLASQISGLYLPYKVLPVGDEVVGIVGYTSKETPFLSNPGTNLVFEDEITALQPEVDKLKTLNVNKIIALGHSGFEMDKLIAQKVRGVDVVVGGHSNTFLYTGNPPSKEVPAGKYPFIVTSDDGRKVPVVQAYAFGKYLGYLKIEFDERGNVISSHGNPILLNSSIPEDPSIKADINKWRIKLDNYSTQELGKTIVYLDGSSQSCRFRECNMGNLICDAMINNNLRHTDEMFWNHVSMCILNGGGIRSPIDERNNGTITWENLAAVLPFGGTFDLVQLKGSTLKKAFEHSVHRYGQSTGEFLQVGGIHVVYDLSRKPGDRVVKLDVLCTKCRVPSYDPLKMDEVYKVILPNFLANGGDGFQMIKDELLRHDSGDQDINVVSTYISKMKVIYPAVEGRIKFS

T3: recombinant human CD73 protein (human, UniProt P21589 27-549, limits assumed)
T3 sequence (looked up): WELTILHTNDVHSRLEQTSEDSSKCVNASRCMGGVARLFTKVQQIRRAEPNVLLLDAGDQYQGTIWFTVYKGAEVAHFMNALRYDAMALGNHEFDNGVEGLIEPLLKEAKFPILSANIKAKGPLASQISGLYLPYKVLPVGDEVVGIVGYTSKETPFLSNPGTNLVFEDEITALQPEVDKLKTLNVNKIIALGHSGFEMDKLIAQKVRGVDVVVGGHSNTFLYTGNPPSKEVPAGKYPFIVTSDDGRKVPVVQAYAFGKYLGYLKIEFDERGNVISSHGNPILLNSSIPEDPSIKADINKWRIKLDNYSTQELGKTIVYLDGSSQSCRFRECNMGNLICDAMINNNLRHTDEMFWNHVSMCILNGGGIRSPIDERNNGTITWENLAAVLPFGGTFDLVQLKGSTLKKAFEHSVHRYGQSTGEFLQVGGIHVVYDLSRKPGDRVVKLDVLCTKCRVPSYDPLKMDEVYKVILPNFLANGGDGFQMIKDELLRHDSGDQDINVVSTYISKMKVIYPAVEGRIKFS

T4: human CD73-His (human, UniProt P21589 27-549)
T4 construct: extracellular domain; The SPR analyte is only called 'human CD73-His' (non-covalent dimeric antigen); also called HuCD73 His tagged; HuCD73his20170303
T4 sequence: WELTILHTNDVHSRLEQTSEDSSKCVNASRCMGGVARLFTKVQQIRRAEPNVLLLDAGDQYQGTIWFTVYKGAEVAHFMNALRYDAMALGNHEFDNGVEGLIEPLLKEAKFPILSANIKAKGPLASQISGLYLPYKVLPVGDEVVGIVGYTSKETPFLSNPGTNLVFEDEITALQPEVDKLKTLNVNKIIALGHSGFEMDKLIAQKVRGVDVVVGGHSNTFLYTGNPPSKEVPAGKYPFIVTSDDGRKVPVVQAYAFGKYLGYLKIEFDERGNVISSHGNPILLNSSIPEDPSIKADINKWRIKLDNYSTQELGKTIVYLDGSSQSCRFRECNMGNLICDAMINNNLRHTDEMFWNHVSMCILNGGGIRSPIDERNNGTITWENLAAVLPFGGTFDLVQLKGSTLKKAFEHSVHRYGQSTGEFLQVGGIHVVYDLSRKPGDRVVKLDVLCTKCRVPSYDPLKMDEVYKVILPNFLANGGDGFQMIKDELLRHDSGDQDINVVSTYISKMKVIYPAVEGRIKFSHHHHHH

T5: mouse CD73 (mouse, UniProt Q61503 29-551, limits assumed)
T5 construct: also called murine CD73
T5 sequence (looked up): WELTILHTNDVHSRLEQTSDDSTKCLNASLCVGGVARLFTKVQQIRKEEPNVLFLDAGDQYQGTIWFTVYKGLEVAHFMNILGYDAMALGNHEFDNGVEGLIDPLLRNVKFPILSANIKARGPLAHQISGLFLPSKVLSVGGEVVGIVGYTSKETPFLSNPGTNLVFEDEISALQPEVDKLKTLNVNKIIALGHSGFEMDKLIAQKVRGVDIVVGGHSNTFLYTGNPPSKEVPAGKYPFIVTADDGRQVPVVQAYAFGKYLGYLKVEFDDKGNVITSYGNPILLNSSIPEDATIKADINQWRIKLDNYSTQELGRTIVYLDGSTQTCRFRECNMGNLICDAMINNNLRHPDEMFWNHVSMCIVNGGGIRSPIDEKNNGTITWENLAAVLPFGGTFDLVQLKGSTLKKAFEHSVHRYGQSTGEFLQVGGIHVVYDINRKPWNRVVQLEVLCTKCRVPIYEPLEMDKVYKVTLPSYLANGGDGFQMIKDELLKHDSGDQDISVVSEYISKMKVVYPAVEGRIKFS

B1: B2 (antibody, human IgG1, kappa, L234A L235A, V domains shown)
VH: EVQLVESGGGLVQPGGSLRLSCAASGLTFSSYVMSWVRQAPGKGLEWVSTISSGGVSTYYPDTVKGRFTISRDNSKNTLYLQMNSLRAEDTAVYYCAKRETARATGFAYWGQGTLVTVSA
VL: DIQMTQSPSSLSASVGDRVTITCKASQSVSDDVTWYQQKPGKAPKLLIYYASNRYTGVPSRFSGSGSGTDFTFTISSVQPEDIATYYCQQDYSSPWTFGGGTKLEIKR
notes: Humanized monoclonal antibody; also called anti-CD73 antibody B2
B2: C2 (antibody, human IgG1, kappa, L234A L235A, V domains shown)
VH: QVQLVQSGAEVKKPGDSVKVSCKASGYTFTTYWMHWVRQAPGQGLEWMGAIYPGLSDTTYSQKFKGKVTMTRDTSTSTVYMKLSSLRSEDTAVYYCARLLDYAMDYWGQGTLVTVSS
VL: DIQMTQSPSSLSASVGDRVTITCRASQDIRSYLNWHQQKPGKAPKLLIWYTSRLHSGVPSRFSGSGSGTDYTLTISSLEPEDFATYFCQQGETLPWTFGQGTKLEIKR
notes: Humanized monoclonal antibody; also called anti-CD73 antibody C2

Assays:
cell-bound CD73 [1] = target: T1, cell-bound CD73; experiment: cell-based or functional assay
non-cell-bound CD73 = target: T2, non-cell-bound CD73; experiment: cell-based or functional assay
[2] = target: T3, recombinant human CD73 protein; experiment: cell-based or functional assay
cell-bound CD73 [3] = target: T1, cell-bound CD73; experiment: cell-based or functional assay; remark: listed apart in the source
cell-bound CD73 [4] = target: T1, cell-bound CD73; experiment: cell-based or functional assay; remark: listed apart in the source
cell-bound CD73 [5] = target: T1, cell-bound CD73; experiment: cell-based or functional assay; remark: listed apart in the source
cell-bound CD73 [6] = target: T1, cell-bound CD73; experiment: cell-based or functional assay; remark: listed apart in the source
cell-bound CD73 [7] = target: T1, cell-bound CD73; experiment: cell-based or functional assay; remark: listed apart in the source
human CD73-His = target: T4, human CD73-His; experiment: SPR (ProteOn XPR36), antibody captured on Protein A/G, dimeric human CD73-His as analyte, avidity format, 1:1 Langmuir fit
Protocol: For the avidity format, the experiment was performed on a Bio-Rad ProteOn XPR36 instrument. Antibodies were captured via Protein A/G and the non-covalent dimeric antigens were flowed over the captured surface. The running buffer for this experiment and all dilutions were prepared in PBS-T-EDTA. The GLM sensor chip was normalized and pre-conditioned as per the manufacturer's recommendations. The sensor chip was activated with an equal mixture of EDC/s-NHS in the horizontal direction for 300 s at a flow rate of 30 μL/min and immobilized with recombinant Protein A/G (50 μg/ml in 10 mM acetate pH 4.5) in the horizontal direction for 300 s at a flow rate of 30 μL/min resulting in about 5000 RU of Protein A/G on the surface. The sensor chip was deactivated with 1M ethanolamine-HCl in the horizontal direction for 300 s at a flow rate of 30 μL/min. The sensor chip was regenerated with 18 s of 0.85% phosphoric acid at a flow rate of 100 μL/min 2 times horizontally and 2 times vertically.
About 300 RU of antibody was captured on the Protein A/G surface vertically for 60 s at a flow rate of 30 μL/min. The capture surface was stabilized by injecting PBS-T-EDTA for 60 s at a flowrate of 100 μL/min horizontally. The analyte (human CD73-His) was injected horizontally over the captured antibody for 600 s at a flow rate of 30 μL/min with a dissociation of 1200 s. The concentrations of human CD73-His were 0 nM, 3.125 nM, 6.25 nM, 12.5 nM, 25 nM and 50 nM. The surface was regenerated by injecting 0.85% phosphoric acid for 18 s at a flow rate of 100 μL/min one time horizontally and one time vertically.
The interspot (interactions with sensor surface) and blank (PBS-T-EDTA or 0 nM analyte) were subtracted from the raw data.

mouse CD73 = target: T5, mouse CD73; experiment: SPR, mouse CD73 compared with human CD73 (reference)

Molecule	% of max. adenosine inhibition, washed Colo-201 cells (cell-bound CD73 [1])	CD8 T cell proliferation [% of control], Donor A, 1 nM antibody (cell-bound CD73 [1])	CD8 T cell proliferation [% of control], Donor B, 1 nM antibody (cell-bound CD73 [1])	CD8 T cell proliferation [% of control], Donor C, 1 nM antibody (cell-bound CD73 [1])	CD8 T cell proliferation [% of control], Donor D, 1 nM antibody (cell-bound CD73 [1])	CD8 T cell proliferation [% of control], Donor E, 1 nM antibody (cell-bound CD73 [1])	CD8 T cell proliferation [% of control], Donor F, 1 nM antibody (cell-bound CD73 [1])	CD73 surface reduction [%] on Colo201 cells, 24 h, flow cytometry (cell-bound CD73 [1])	IFNγ release [fold change over control], Donor A, 1 nM antibody (cell-bound CD73 [1])	IFNγ release [fold change over control], Donor B, 1 nM antibody (cell-bound CD73 [1])	IFNγ release [fold change over control], Donor C, 1 nM antibody (cell-bound CD73 [1])	IFNγ release [fold change over control], Donor D, 1 nM antibody (cell-bound CD73 [1])	IFNγ release [fold change over control], Donor E, 1 nM antibody (cell-bound CD73 [1])	IFNγ release [fold change over control], Donor F, 1 nM antibody (cell-bound CD73 [1])	Max. adenosine inhibition [%] in Colo201 cells (cell-bound CD73 [1])	% of max. adenosine inhibition, Colo-201 culture supernatant (non-cell-bound CD73)	IC90 of inhibition of CD73 enzymatic function (luciferase-based assay) [2]	CD73 surface reduction [%] on Colo201 cells, 24 h, flow cytometry (cell-bound CD73 [3])	Max. adenosine inhibition [%] in Colo201 cells (cell-bound CD73 [4])	CD8 T cell proliferation [% of control], Donor A, 1 nM antibody (cell-bound CD73 [5])	also measured
"MEDI9447" (antibody)	62%	43.9%	46.7%	115%	98%	85.5%	-34.1%	17%	7.7 fold	5.3 fold	16.2 fold	20.7 fold	5 fold	1.1 fold	63%	56%	–	–	–	–	–
"BMS986179" (antibody)	84%	40.7%	61.7%	99.6%	98.7%	95.4%	22.5%	58%	10.9 fold	5.2 fold	36.4 fold	13.3 fold	7.2 fold	2.9 fold	68%	63%	–	–	–	–	–
B1	–	–	–	–	–	–	–	–	–	–	–	–	–	–	–	62%	1040 pM	31%	77%	55.6%	CD8 T cell proliferation [% of control], Donor B, 1 nM antibody (cell-bound CD73 [5]): 62.2%; CD8 T cell proliferation [% of control], Donor C, 1 nM antibody (cell-bound CD73 [5]): 95.8%; CD8 T cell proliferation [% of control], Donor D, 1 nM antibody (cell-bound CD73 [5]): 98.5%; CD8 T cell proliferation [% of control], Donor E, 1 nM antibody (cell-bound CD73 [5]): 99.1%; CD8 T cell proliferation [% of control], Donor F, 1 nM antibody (cell-bound CD73 [5]): -8.9%; IFNγ release [fold change over control], Donor A, 1 nM antibody (cell-bound CD73 [6]): 12.6 fold; IFNγ release [fold change over control], Donor B, 1 nM antibody (cell-bound CD73 [6]): 8.1 fold; IFNγ release [fold change over control], Donor C, 1 nM antibody (cell-bound CD73 [6]): 34.1 fold; IFNγ release [fold change over control], Donor D, 1 nM antibody (cell-bound CD73 [6]): 17.7 fold; IFNγ release [fold change over control], Donor E, 1 nM antibody (cell-bound CD73 [6]): 11.1 fold; IFNγ release [fold change over control], Donor F, 1 nM antibody (cell-bound CD73 [6]): 3.1 fold; % of max. adenosine inhibition, washed Colo-201 cells (cell-bound CD73 [7]): 70%; Kd (human CD73-His): 420 pM
B2	–	–	–	–	–	–	–	–	–	–	–	–	–	–	–	77%	490 pM	15%	88%	103%	CD8 T cell proliferation [% of control], Donor B, 1 nM antibody (cell-bound CD73 [5]): 68.5%; IFNγ release [fold change over control], Donor A, 1 nM antibody (cell-bound CD73 [6]): 20.3 fold; IFNγ release [fold change over control], Donor B, 1 nM antibody (cell-bound CD73 [6]): 7.8 fold; % of max. adenosine inhibition, washed Colo-201 cells (cell-bound CD73 [7]): 78%; fold higher binding to human CD73 than to mouse CD73 (mouse CD73): 138 fold; Kd (human CD73-His): 63 pM
